From paper PMC4098866

biological target: laminin from mouse EHS (Engelbreth-Holm-Swarm) sarcoma (mouse); assay: ELISA

First: RPSA-(2–209) (from UniProt P14206 2-209) (domain or fragment)
Second: RPSA-(2–220) (from UniProt P14206 2-220) (domain or fragment)
The Kd of the first is 2.5-fold lower: 273 nM for the first, 691 nM for the second. The first binds more tightly here.

Going from “RPSA-(2–295) (from UniProt P14206 2-295) (natural protein)” to “RPSA-(210–295) (from UniProt P14206 210-295) (domain or fragment)”, the Kd falls from 666 nM to 374 nM (1.8-fold).

With “RPSA-(225–295) (from UniProt P14206 225-295) (domain or fragment)” the Kd was 344 nM.
